Consider 3 molecules from doi:10.1101/2020.07.30.230052 (bioRxiv, 2020).

B1: PBP4 (penicillin binding protein 4, DD-carboxy/endopeptidase) of Escherichia coli, wild type, purified (enzyme)
chain: ANVDEYITQLPAGANLALMVQKVGASAPAIDYHSQQMALPASTQKVITALAALIQLGPDFRFTTTLETKGNVENGVLKGDLVARFGADPTLKRQDIRNMVATLKKSGVNQIDGNVLIDTSIFASHDKAPGWPWNDMTQCFSAPPAAAIVDRNCFSVSLYSAPKPGDMAFIRVASYYPVTMFSQVRTLPRGSAEAQYCELDVVPGDLNRFTLTGCLPQRSEPLPLAFAVQDGASYAGAILKDELKQAGITWSGTLLRQTQVNEPGTVVASKQSAPLHDLLKIMLKKSDNMIADTVFRMIGHARFNVPGTWRAGSDAVRQILRQQAGVDIGNTIIADGSGLSRHNLIAPATMMQVLQYIAQHDNELNFISMLPLAGYDGSLQYRAGLHQAGVDGKVSAKTGSLQGVYNLAGFITTASGQRMAFVQYLSGYAVEPADQRNRRIPLVRFESRLYKDIYQNN
B2: Oligo-histidine tagged NlpI (His-NlpI) (natural protein, Escherichia coli, UniProt P0AFB1 19-294, looked up)
chain: CSNTSWRKSEVLAVPLQPTLQQEVILARMEQILASRALTDDERAQLLYERGVLYDSLGLRALARNDFSQALAIRPDMPEVFNYLGIYLTQAGNFDAAYEAFDSVLELDPTYNYAHLNRGIALYYGGRDKLAQDDLLAFYQDDPNDPFRSLWLYLAEQKLDEKQAKEVLKQHFEKSDKEQWGWNIVEFYLGNISEQTLMERLKADATDNTSLAEHLSETNFYLGKYYLSLGDLDSATALFKLAVANNVHNFVEHRYALLELSLLGQDQDDLAESDQQ

Data set [1] concerns the target PBP4 lacking domain 3 (PBP4ΔD3), purified (Escherichia coli) (UniProt P24228). Nature of the data set: AUC.
Data set [2] addresses LpoA, full length version, purified (Escherichia coli) (UniProt P45464). Nature of the data set: MST.
For data set [3], the target named is N-terminal domain of LpoA (LpoA^N, residues G28-T256) (Escherichia coli) (UniProt P45464). Put plainly: MST.
Chain of N-terminal domain of LpoA (LpoA^N, residues G28-T256) (Escherichia coli) (P45464 28-256): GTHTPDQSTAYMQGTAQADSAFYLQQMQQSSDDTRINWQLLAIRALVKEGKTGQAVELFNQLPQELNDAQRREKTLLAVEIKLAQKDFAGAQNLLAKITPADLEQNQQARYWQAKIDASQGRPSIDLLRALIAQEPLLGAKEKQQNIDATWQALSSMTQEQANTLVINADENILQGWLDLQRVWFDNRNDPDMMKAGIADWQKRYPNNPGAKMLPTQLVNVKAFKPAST
Data set [4] deals with the molecule itself. Put plainly: AUC.
Data set [5] concerns the target B1. Nature of the data set: pull-down.

Chain of LpoA, full length version, purified (Escherichia coli) (P45464 27-678): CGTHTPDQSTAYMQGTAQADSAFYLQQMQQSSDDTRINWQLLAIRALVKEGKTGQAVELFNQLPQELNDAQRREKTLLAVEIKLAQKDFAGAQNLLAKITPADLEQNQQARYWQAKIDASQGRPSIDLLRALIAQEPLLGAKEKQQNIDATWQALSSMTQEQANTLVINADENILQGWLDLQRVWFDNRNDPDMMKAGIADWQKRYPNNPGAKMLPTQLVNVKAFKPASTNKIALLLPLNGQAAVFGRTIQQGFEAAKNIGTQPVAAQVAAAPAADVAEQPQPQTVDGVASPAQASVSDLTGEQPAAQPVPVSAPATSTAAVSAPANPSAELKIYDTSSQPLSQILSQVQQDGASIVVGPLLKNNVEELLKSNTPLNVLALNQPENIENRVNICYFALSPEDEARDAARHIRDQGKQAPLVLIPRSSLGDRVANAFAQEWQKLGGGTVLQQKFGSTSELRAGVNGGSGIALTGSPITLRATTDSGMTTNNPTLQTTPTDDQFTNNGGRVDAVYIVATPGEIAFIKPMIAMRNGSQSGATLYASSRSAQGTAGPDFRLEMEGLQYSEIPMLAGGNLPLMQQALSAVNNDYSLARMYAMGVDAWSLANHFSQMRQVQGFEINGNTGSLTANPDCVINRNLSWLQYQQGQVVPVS

The term stoichiometry N denotes a count of units in the complex or per binding partner. Usually Kd stands for a measure of binding affinity in units of concentration. A low value points to tighter binding. “PBP4 lacking domain 3 (PBP4ΔD3), purified (from UniProt P24228 21-477) (enzyme)” registered a stoichiometry N in data set [1] of 2. The Kd in data set [2] worked out at 153 nM. This molecule came in with a fold decrease of app. KD against wild-type PBP4 in data set [3] of 50 fold.
As for B1, the “stoichiometry N” value in data set [4] is 2.
In the case of B2, the binding result in data set [5] is reported as “binds”.
